Results reported in PMC10321576, “Cyclic peptides target the aromatic cage of a PHD-finger reader domain to modulate epigenetic protein function†” (Chemical Science, 2023).
Blank lines part the entries; values can stand above or below the binder they belong to. Bridge positions count the residues as written; N and C are the ends. Square brackets hold non-standard residues; d marks the D form. Ends that are not written are not given here. Lys(Me3) = C[N+](C)(C)CCCC[C@H](N)C(=O)O

Experiments:
KDM7B PHD-finger [1] = biological target: T1, KDM7B PHD-finger (UniProt Q9UPP1-2 1-447); test: BLI; association and dissociation of the cyclic peptide (2-fold serial dilution) on the protein; curve fittings with a 1:1 binding model; conditions: both partners purified
T1 sequence (Q9UPP1 37-483): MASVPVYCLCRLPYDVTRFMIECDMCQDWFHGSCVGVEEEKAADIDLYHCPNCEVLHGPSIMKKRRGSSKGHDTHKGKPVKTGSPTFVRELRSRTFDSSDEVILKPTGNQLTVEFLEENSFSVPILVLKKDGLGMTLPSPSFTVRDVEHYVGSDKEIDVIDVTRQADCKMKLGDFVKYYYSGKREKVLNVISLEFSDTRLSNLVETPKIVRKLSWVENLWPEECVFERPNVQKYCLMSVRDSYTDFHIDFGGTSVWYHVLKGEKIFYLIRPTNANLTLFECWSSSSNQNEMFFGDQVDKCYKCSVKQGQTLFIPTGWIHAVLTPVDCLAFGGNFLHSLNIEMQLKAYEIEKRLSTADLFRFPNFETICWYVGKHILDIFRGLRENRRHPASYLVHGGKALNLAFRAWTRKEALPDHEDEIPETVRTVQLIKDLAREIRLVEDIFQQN

KDM7B PHD-finger [2] = biological target: T1, KDM7B PHD-finger; test: AlphaScreen or HTRF; proximity assay of His-tagged protein and biotinylated H3(1-21)K4me3; displacement by titrated unlabelled peptide; conditions: both partners purified
KDM7B PHD-finger [3] = biological target: T1, KDM7B PHD-finger; test: BLI + AlphaScreen or HTRF; SAR of OC9 variants on KDM7B PHD-finger by affinity (BLI) and displacement (AS) assays; the sentence does not tell which gave the result; conditions: both partners purified
[4] = biological target: T2, KDM7B (PHF8, JHDM1F) dual domain (PHD-JmjC) (UniProt Q9UPP1-2 1-447); test: ITC; binding curves fitted with a 1:1 binding model; conditions: both partners purified
T2 construct: KDM7B (PHF8, JHDM1F), PHD-finger in tandem with the JmjC demethylase domain; methods are not in the main text; also called KDM7B dual domain
T2 sequence (Q9UPP1 37-483): as above

KDM7B PHD-finger [5] = biological target: T1, KDM7B PHD-finger; test: as above; conditions: both partners purified
[6] = biological target: T2, KDM7B (PHF8, JHDM1F) dual domain …; test: BLI; association and dissociation of the cyclic peptide (2-fold serial dilution) on the protein; curve fittings with a 1:1 binding model; conditions: both partners purified
[7] = biological target: T2, KDM7B (PHF8, JHDM1F) dual domain …; test: cell-based or functional assay
KDM7B PHD-finger [8] = biological target: T1, KDM7B PHD-finger; test: NMR titration; 1H-15N HSQC and 1H-NMR of isotopically labelled KDM7B PHD-finger, apo or with peptide; conditions: both partners purified

Binder: YYLTH[trans‑4‑fluoroproline]YPSVFRTC (ends and bridges not checked) [OC9 with trans-4-fluoroproline at P6]
fold higher affinity against the cis-fluoro variant at P6 (KDM7B PHD-finger [3]): > 10 fold

Binder: YYLTHPYPS[dV]FRTC (ends and bridges not checked) [OC9 V10DV]
Kd (KDM7B PHD-finger [1]): > 10000 nM
Kd (KDM7B PHD-finger [8]): 503000 ± 1000 nM

More lines, in order of falling Kd (KDM7B PHD-finger [1]), values ahead:

Kd (KDM7B PHD-finger [1]): 533 nM
IC50 (KDM7B PHD-finger [2]): 316 nM
Binder: YYLTHPYPS[Lys(Me3)]FRTC (ends and bridges not checked) [OC9 V10Kme3]

Kd [4]: 11 nM
Kd (KDM7B PHD-finger [5]): 12 nM
Kd [6]: 6 nM
dissociative half-life t1/2 [6]: 2.8 min
Kd (KDM7B PHD-finger [1]): 4 nM
dissociative half-life t1/2 (KDM7B PHD-finger [1]): 8.1 min
IC50 of inhibition of KDM7B demethylation of H3(1–21)K4me3K9me2, MALDI-TOF MS based assay [7]: 1190 nM
IC50 of inhibition of KDM7B demethylation of H3(1–21)K9me2, MALDI-TOF MS based assay [7]: 510 nM
IC50 (KDM7B PHD-finger [2]): 32 nM
Binder: {CH2CO}-YYLTHPYPSVFRTC (thioether N-14) [OC9, de novo cyclic peptide from mRNA display]
